Where two headings read alike, the source gives them in different places.
Tests used:
[1] = system: chymotrypsin enzyme; test: In vitro enzyme resistance (chymotrypsin) of HIM2 and its complexes; conditions: chymotrypsin digest, 37° C., pH about 7.4
Description: Lyophilized chymotrypsin enzyme was resuspended in 1 mM HCl to a concentration of 7.53 U/mL. A 1.53 mL aliquot of each sample was added to sample tubes and 0.850 mL into control tubes. Samples were tested in duplicate along with four control tubes per sample. […] Then 17 μL of chymotrypsin enzyme was added to each sample tube. Five μL of 1 mM HCl was added to each control tube. Immediately following the additions, 200 μL was removed from the sample and the control tubes and placed into 50 μL of 1% TFA previously aliquoted out into centrifuge tubes. This sample serves as T=0.
(§1) The control procedure was repeated at the following intervals: 0, 8, 15, 30 minutes. For T-type and R-type samples, the procedure was repeated at the following intervals: 0, 5, 8, 12, 30, 40 and 60 minutes. The control procedure for the Zn complexes was repeated at the following intervals: 0, 12, 40 and 60 minutes. Samples were stored at −20° C. until analysis can occur via HPLC. HPLC was performed to determine percent degradation relative to the respective T=0 minute for each digest. The natural log of the percent remaining was plotted versus time and a linear regression run for each digest. The half life was calculated using the equation: t=−0.693/slope.

[2] = system: male CF-1 mice; test: Extended Mouse Blood Glucose Assay (MBGA); type: in vivo; conditions: subcutaneous
Description: Six paired-dose groups of 5 male CF-1 mice (Charles River Laboratories; 25-30 g) received subcutaneous injections of either the insulin compound conjugate (test article) or recombinant human insulin. The test article was reconstituted with phosphate buffer (0.01 M, a pH of about 7.4) containing 0.1% w/w bovine serum albumin and dosed at 100, 66.6, 43.3, 30, 20, and 13.3 μg/kg. Insulin compound was reconstituted with phosphate buffer (0.01 M, a pH of about 7.4) containing 0.1% w/w bovine serum albumin and dosed at 50, 33.3, 21.7, 15, 10, and 6.7 μg/kg. […] Blood samples were collected in heparin tubes for glucose assay. If glucose assay was delayed, the tubes were stored in ice water and re-warmed to room temperature before assay.
Plasma glucose was measured with a glucometer (e.g., One Touch® Basic; Lifescan), which was calibrated at the beginning of each day of use according to the manufacturer's instructions. The potency of the insulin compound conjugate was then calculated relative to the standard curve that was generated for the recombinant human insulin response. Calculations were based upon the assumption that recombinant human insulin has a potency of 27.4 IU/mg.

[3] = system: chymotrypsin enzyme
Description: Lyophilized chymotrypsin enzyme was resuspended in 1 mM HCl to a concentration of ˜7.53 U/mL. A 1.53 mL aliquot of each sample was added to sample tubes and 0.850 mL into control tubes. Samples were tested in duplicate along with four control tubes per sample. […] Then 17 μL of chymotrypsin enzyme was added to each sample tube. Five μL of 1 mM HCl was added to each control tube. Immediately following the additions, 200 μL was removed from the sample and the control tubes and placed into 50 μL of 1% TFA previously aliquoted out into centrifuge tubes. This sample serves as T=0.
as §1

[4] = type: physicochemical
Description: Two hundred microliters of 0.1M Phosphate Buffer Saline (PBS, filtered, pH=7.4) was added to a 1 mL conical reaction vial. To this vial, a small amount of sample was added slowly until saturation is observed. Periodically, the solution was vortexed. […] After centrifugation, 10 μL of the sample was removed from the supernatant and diluted in 490 μL buffer (0.1 M PBS). This diluted sample was analyzed via HPLC to determine its' concentration.

Substance “HIM2 (R-type zinc complex): R-type zinc complex of HIM2, 1.1% w/w zinc” has a T half ([1]; 0.3 mg/mL protein) of 19 to 21 min.

For “HIM2 (R-type zinc/protamine complex): R-type zinc complex of HIM2 with protamine”, the T half ([1]; 0.6 mg/ml protein) was 95 to 120 min and the “glucose lowering effect at 30 and 90 minutes post dose” value [2] was “greater glucose reduction at 30 minutes than 90 minutes”.

Work on “HIM2 (T-type zinc complex): T-type zinc complex of HIM2, 0.55% w/w zinc” yielded a T half ([1]; 0.3 mg/mL protein) of 12 to 15 min.

In the case of “HIM2: human insulin monoconjugate with a modifying moiety coupled at B29”, the “biopotency (MBGA) on complexation with Zn++” value ([2]; plasma glucose 30 minutes post dose, relative to recombinant human insulin) is reported as “not significantly reduced”.

“IN105 (T-type zinc complex): T-type Zn complex of IN105, 1.88% w/w zinc; same zinc content as reaction 9.5.3” gave a T half [3] of 54.8 min.

For “Reaction 9.3.3: R-type Zn Complex of HIM2 with Protamine at Acidic pH”, the “Solubility” value ([4]; pH 7.4) was 36.78 mg/mL.

With “Reaction 9.5.1: T-Type Zn Complex of IN105 Monoconjugate (10 g/L Concentration)” the “Solubility (mg/mL) in a pH of about 7.4, 0.1M phosphate buffer” value [4] was 80-85 mg/mL.

In the case of “Reaction 9.5.2: T-Type Zn Complex of IN105 Monoconjugate (1 g Scale)”, the “Solubility (mg/mL) in a pH of about 7.4, 0.1M phosphate buffer” value [4] is reported as 10-20 mg/mL.

For “Reaction 9.6.2: R-Type Zn Complex of IN105 Conjugate at 5 g Scale”, the “Solubility” value [4] was 10 to 25 mg/mL.

— patent US9102758B2, “Insulin-oligomer conjugates, formulations and uses thereof” (priority 2004, dated 2015)
